Source: patent publication US20220017601A1 (JIANGSU HENGRUI MEDICINE, published 2022)

What was measured:
human TGF-β1 [1] = biological target: T1, human TGF-β1 (human, UniProt P01137 279-390); assay: ELISA, plate coated with human TGF-β1, anti-human Fc-HRP, OD 450 nm
T1 construct: Bought protein; also called Human TGF-β1 (8915LC, CST); human TGF-β1 (R&D, 240-B-010)
Method: a. […] Washing 3 times with 250 μl of 1×PBST, 250 μl of 5% milk PBS was added for blocking at 37° C. for 2 hours. c. […] Washing 3 times with 250 μl 1×PBST. e. 100 μl of Anti-human Fc antibody-HRP (1:4000) was added to each well and incubated for 40 minutes at 37° C. f. 100 μl of TMB was added into each well, incubated for 10 minutes at room temperature, and the reaction was stopped by adding 100 μl of 1 M H₂SO₄. g. The absorbance at 450 nm was measured on a microplate reader, and the data was analyzed by Graphpad Prism 5.

[2] = biological target: human PD-L1 on CHO/PD-L1 cells (CS187108, Promega) (human, UniProt Q9NZQ7 19-290); assay: cell-based or functional assay
human TGF-β1 [3] = biological target: T1, human TGF-β1; assay: cell-based or functional assay

T1 sequence (P01137 279-390 limits assumed): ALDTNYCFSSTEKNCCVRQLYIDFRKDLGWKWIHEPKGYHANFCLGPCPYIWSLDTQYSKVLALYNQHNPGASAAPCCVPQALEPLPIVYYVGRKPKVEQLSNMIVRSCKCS
Sequence of human PD-L1 on CHO/PD-L1 cells (CS187108, Promega) (Q9NZQ7 19-290): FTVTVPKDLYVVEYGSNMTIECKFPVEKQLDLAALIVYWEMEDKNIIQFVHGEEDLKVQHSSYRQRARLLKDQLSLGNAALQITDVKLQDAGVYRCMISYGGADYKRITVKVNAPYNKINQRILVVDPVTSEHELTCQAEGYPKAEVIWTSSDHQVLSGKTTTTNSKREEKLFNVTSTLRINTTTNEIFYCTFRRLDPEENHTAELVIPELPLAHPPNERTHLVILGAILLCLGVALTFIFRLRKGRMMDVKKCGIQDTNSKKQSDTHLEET

binding result (human TGF-β1 [1]): no binding (tested: 1e6 pM (Log(pM) 6))
EC50 (read off the curve), luminescence of the PD-1/PD-L1 blockade reporter assay [2]: ~300 pM
TGFβ-induced pSMAD3 reporter activity (luciferase, HepG2 cells), IC50 (human TGF-β1 [3]): > 500 nM
B1: PD-L1 antibody (antibody, human IgG4 S228P, kappa, F234A L235A, V domains shown)
VH: QVQLVQSGAEVKKPGASVKVSCKASGYTFTSYWMHWVRQAPGQGLEWMGRIGPNSGFTSYNEKFKNRVTMTRDTSTSTVYMELSSLRSEDTAVYYCARGGSSYDYFDYWGQGTTVTVSS
VL: DIVLTQSPASLAVSPGQRATITCRASESVSIHGTHLMHWYQQKPGQPPKLLIYAASNLESGVPARFSGSGSGTDFTLTINPVEAEDTANYYCQQSFEDPLTFGQGTKLEIKR
notes: Human IgG4 with S228P, F234A, L235A and the C-terminal K mutated to A; also called Ab; PD-L1 antibody IgG4 (AA) (S228P)
